Measurements from PMC4912689, “The Extracellular Surface of the GLP-1 Receptor Is a Molecular Trigger for Biased Agonism” (Cell, 2016).
Positions count from the first letter of the chain named. Names may count otherwise. “Also recorded” adds a separate entry of the source.

Experiments:
[1] = biological target: T1, human GLP-1R wildtype (Homo sapiens, UniProt P43220); test: cAMP accumulation; format: cell-based; conditions: normalized to forskolin; n=3, duplicate; Figure S7
[2] = biological target: T1, human GLP-1R wildtype; test: ERK1/2 phosphorylation; format: cell-based; conditions: normalized to FBS; n=3, duplicate; Figure S7
[3] = system: human GLP-1R R190A; test: cAMP production at R190A mutant; format: cell-based; conditions: Figure S3
Protocol: For cAMP assays, cells were stimulated for 30 min in the presence of the phosphodiesterase inhibitor IBMX and then lysed.
Dulbecco’s Modified Eagle’s Medium (DMEM) and Fluo-4 AM were purchased
from Invitrogen (Carlsbad, CA, USA). Foetal bovine serum (FBS) was purchased from Thermo
Electron Corporation (Melbourne, VIC, Australia). AlphaScreen reagents, 384-well opti and
proxiplates were purchased from PerkinElmer Life and Analytical Sciences (Waltham, MA, USA).
All other reagents were purchased from
Sigma-Aldrich (St. Louis, MO, USA) or BDH Merck (Melbourne, Vic, Australia) and were of an
Receptor mutagenesis. To study the influence of ECL amino acids, and R190 on receptor function,
the desired mutations were introduced to an N-terminally double c-myc labeled wild-type human GLP-
1R in the pEF5/FRT/V5-DEST destination vector (Invitrogen); this receptor had equivalent
Mutagenesis was carried out using oligonucleotides for
site-directed mutagenesis purchased from GeneWorks (HindMarsh, SA, Australia) and the
QuikChangeTM site-directed mutagenesis kit (Stratagene) and confirmed by automated sequencing
Cell culture: Stable transfections; Wild-type and mutant human GLP-1Rs were isogenically
integrated into FlpIn-Chinese hamster ovary (FlpInCHO) cells (Invitrogen) and selection of receptor-
expressing cells accomplished by treatment with 600 µg ml-1 hygromycin-B as previously described […]

[4] = biological target: exendin-4, P26349; test: radioligand inhibition binding (competition with 125I-exendin-4(9-39)); conditions: chain shown with the change;; read off a plot

T1 sequence (P43220 24-463): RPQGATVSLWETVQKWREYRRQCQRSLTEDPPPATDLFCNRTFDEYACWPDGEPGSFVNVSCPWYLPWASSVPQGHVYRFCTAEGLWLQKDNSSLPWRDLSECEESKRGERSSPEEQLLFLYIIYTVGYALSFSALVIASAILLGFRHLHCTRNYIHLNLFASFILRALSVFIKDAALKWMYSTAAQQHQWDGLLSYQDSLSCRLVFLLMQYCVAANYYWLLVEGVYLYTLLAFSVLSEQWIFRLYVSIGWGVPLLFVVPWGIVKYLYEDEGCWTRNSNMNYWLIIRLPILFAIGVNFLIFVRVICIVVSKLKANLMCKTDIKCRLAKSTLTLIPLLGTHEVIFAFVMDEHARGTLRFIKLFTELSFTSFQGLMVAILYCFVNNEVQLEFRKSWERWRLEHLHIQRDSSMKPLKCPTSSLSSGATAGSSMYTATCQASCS

GLP-1(9-36)NH2
cAMP response [1]: unable to activate the cAMP pathway; also recorded: unable to generate a cAMP response | pERK1/2 response [2]: can still promote pERK1/2; also recorded: maintains the ability to promote pERK1/2

modified oxyntomodulin: oxyntomodulin with Q^3 substituted with E (HSEGTFTSDYSKYLDSRRAQDFVQWLMNTKRNRNNIA; Oxyntomodulin; UniProt P01275 53-89, looked up, variant Q3E)
requirement of R190 for cAMP production [3]: required for cAMP production

B1: glucagon-like peptide 1 receptor (GLP-1R), wild-type, P43220 Q213A (protein)
chain: RPQGATVSLWETVQKWREYRRQCQRSLTEDPPPATDLFCNRTFDEYACWPDGEPGSFVNVSCPWYLPWASSVPQGHVYRFCTAEGLWLQKDNSSLPWRDLSECEESKRGERSSPEEQLLFLYIIYTVGYALSFSALVIASAILLGFRHLHCTRNYIHLNLFASFILRALSVFIKDAALKWMYSTAAQQHAWDGLLSYQDSLSCRLVFLLMQYCVAANYYWLLVEGVYLYTLLAFSVLSEQWIFRLYVSIGWGVPLLFVVPWGIVKYLYEDEGCWTRNSNMNYWLIIRLPILFAIGVNFLIFVRVICIVVSKLKANLMCKTDIKCRLAKSTLTLIPLLGTHEVIFAFVMDEHARGTLRFIKLFTELSFTSFQGLMVAILYCFVNNEVQLEFRKSWERWRLEHLHIQRDSSMKPLKCPTSSLSSGATAGSSMYTATCQASCS
log10 ratio [4]: -0.15 ΔpKi

B2: glucagon-like peptide 1 receptor (GLP-1R), wild-type, P43220 D215A (protein)
chain: B1 chain with A190Q, D192A
log10 ratio [4]: -0.25 ΔpKi

B3: glucagon-like peptide 1 receptor (GLP-1R), wild-type, P43220 Q210A (protein)
chain: B1 chain with Q187A, A190Q
log10 ratio [4]: -0.25 ΔpKi

B4: glucagon-like peptide 1 receptor (GLP-1R), wild-type, P43220 H212A (protein)
chain: B1 chain with H189A, A190Q
log10 ratio [4]: 0.3 ΔpKi

B5: glucagon-like peptide 1 receptor (GLP-1R), wild-type, P43220 I286A (protein)
chain: B1 chain with A190Q, I263A
log10 ratio [4]: -0.3 ΔpKi

B6: glucagon-like peptide 1 receptor (GLP-1R), wild-type, P43220 L290A (protein)
chain: B1 chain with A190Q, L267A
log10 ratio [4]: -0.4 ΔpKi

B7: glucagon-like peptide 1 receptor (GLP-1R), wild-type, P43220 I382A (protein)
chain: B1 chain with A190Q, I359A
log10 ratio [4]: -0.15 ΔpKi

B8: glucagon-like peptide 1 receptor (GLP-1R), wild-type, P43220 S219A (protein)
chain: B1 chain with A190Q, S196A
log10 ratio [4]: -0.15 ΔpKi

B9: glucagon-like peptide 1 receptor (GLP-1R), wild-type, P43220 L218A (protein)
chain: B1 chain with A190Q, L195A
log10 ratio [4]: -0.95 ΔpKi

B10: glucagon-like peptide 1 receptor (GLP-1R), wild-type, P43220 T298A (protein)
chain: B1 chain with A190Q, T275A
log10 ratio [4]: -0.1 ΔpKi

B11: glucagon-like peptide 1 receptor (GLP-1R), wild-type, P43220 D293A (protein)
chain: B1 chain with A190Q, D270A
log10 ratio [4]: -1.1 ΔpKi

B12: glucagon-like peptide 1 receptor (GLP-1R), wild-type, P43220 E294A (protein)
chain: B1 chain with A190Q, E271A
log10 ratio [4]: 0.1 ΔpKi

B13: glucagon-like peptide 1 receptor (GLP-1R), wild-type, P43220 D372A (protein)
chain: B1 chain with A190Q, D349A
log10 ratio [4]: -1.1 ΔpKi

B14: glucagon-like peptide 1 receptor (GLP-1R), wild-type, P43220 Q211A (protein)
chain: B1 chain with Q188A, A190Q
log10 ratio [4]: -0.2 ΔpKi

B15: glucagon-like peptide 1 receptor (GLP-1R), wild-type, P43220 N304A (protein)
chain: B1 chain with A190Q, N281A
log10 ratio [4]: -0.4 ΔpKi

B16: glucagon-like peptide 1 receptor (GLP-1R), wild-type, P43220 W297A (protein)
chain: B1 chain with A190Q, W274A
log10 ratio [4]: -1.8 ΔpKi

B17: glucagon-like peptide 1 receptor (GLP-1R), wild-type, P43220 S223A (protein)
chain: B1 chain with A190Q, S200A
log10 ratio [4]: -0.4 ΔpKi

B18: glucagon-like peptide 1 receptor (GLP-1R), wild-type, P43220 R380A (protein)
chain: B1 chain with A190Q, R357A
log10 ratio [4]: -1.5 ΔpKi

B19: glucagon-like peptide 1 receptor (GLP-1R), wild-type, P43220 L307A (protein)
chain: B1 chain with A190Q, L284A
log10 ratio [4]: -0.8 ΔpKi

B20: glucagon-like peptide 1 receptor (GLP-1R), wild-type, P43220 K202A (protein)
chain: B1 chain with K179A, A190Q
log10 ratio [4]: -0.25 ΔpKi

B21: glucagon-like peptide 1 receptor (GLP-1R), wild-type, P43220 Y291A (protein)
chain: B1 chain with A190Q, Y268A
log10 ratio [4]: -0.45 ΔpKi

B22: glucagon-like peptide 1 receptor (GLP-1R), wild-type, P43220 G295A (protein)
chain: B1 chain with A190Q, G272A
log10 ratio [4]: -0.1 ΔpKi

B23: glucagon-like peptide 1 receptor (GLP-1R), wild-type, P43220 H374A (protein)
chain: B1 chain with A190Q, H351A
log10 ratio [4]: -0.35 ΔpKi

B24: glucagon-like peptide 1 receptor (GLP-1R), wild-type, P43220 K383A (protein)
chain: B1 chain with A190Q, K360A
log10 ratio [4]: -1.1 ΔpKi

B25: glucagon-like peptide 1 receptor (GLP-1R), wild-type, P43220 K288A (protein)
chain: B1 chain with A190Q, K265A
log10 ratio [4]: -1.9 ΔpKi

B26: glucagon-like peptide 1 receptor (GLP-1R), wild-type, P43220 T386A (protein)
chain: B1 chain with A190Q, T363A
log10 ratio [4]: -0.55 ΔpKi

B27: glucagon-like peptide 1 receptor (GLP-1R), wild-type, P43220 M303A (protein)
chain: B1 chain with A190Q, M280A
log10 ratio [4]: -0.7 ΔpKi

B28: glucagon-like peptide 1 receptor (GLP-1R), wild-type, P43220 Y220A (protein)
chain: B1 chain with A190Q, Y197A
log10 ratio [4]: 0.1 ΔpKi

B29: glucagon-like peptide 1 receptor (GLP-1R), wild-type, P43220 V287A (protein)
chain: B1 chain with A190Q, V264A
log10 ratio [4]: -0.25 ΔpKi

B30: glucagon-like peptide 1 receptor (GLP-1R), wild-type, P43220 G285A (protein)
chain: B1 chain with A190Q, G262A
log10 ratio [4]: -0.1 ΔpKi

B31: glucagon-like peptide 1 receptor (GLP-1R), wild-type, P43220 N302A (protein)
chain: B1 chain with A190Q, N279A
log10 ratio [4]: -1.2 ΔpKi

B32: glucagon-like peptide 1 receptor (GLP-1R), wild-type, P43220 S206A (protein)
chain: B1 chain with S183A, A190Q
log10 ratio [4]: -0.2 ΔpKi

B33: glucagon-like peptide 1 receptor (GLP-1R), wild-type, P43220 Y205A (protein)
chain: B1 chain with Y182A, A190Q
log10 ratio [4]: -0.5 ΔpKi

B34: glucagon-like peptide 1 receptor (GLP-1R), wild-type, P43220 W203A (protein)
chain: B1 chain with W180A, A190Q
log10 ratio [4]: -0.15 ΔpKi

B35: glucagon-like peptide 1 receptor (GLP-1R), wild-type, P43220 F381A (protein)
chain: B1 chain with A190Q, F358A
log10 ratio [4]: -0.35 ΔpKi

B36: glucagon-like peptide 1 receptor (GLP-1R), wild-type, P43220 M204A (protein)
chain: B1 chain with M181A, A190Q
log10 ratio [4]: -0.75 ΔpKi

B37: glucagon-like peptide 1 receptor (GLP-1R), wild-type, P43220 Y305A (protein)
chain: B1 chain with A190Q, Y282A
log10 ratio [4]: -1.7 ΔpKi

B38: glucagon-like peptide 1 receptor (GLP-1R), wild-type, P43220 Q221A (protein)
chain: B1 chain with A190Q, Q198A
log10 ratio [4]: -0.2 ΔpKi

B39: glucagon-like peptide 1 receptor (GLP-1R), wild-type, P43220 T207A (protein)
chain: B1 chain with T184A, A190Q
log10 ratio [4]: -0.2 ΔpKi
